Assay results taken from US20170044269A1 (WASHINGTON UNIVERSITY, published 2017).

Columns and labels:
[1] = target: T1, human carcinoembryonic antigen (hCEA) expressed on cells (human, UniProt P06731 35-685); test: cell-based or functional assay
T1 sequence (looked up): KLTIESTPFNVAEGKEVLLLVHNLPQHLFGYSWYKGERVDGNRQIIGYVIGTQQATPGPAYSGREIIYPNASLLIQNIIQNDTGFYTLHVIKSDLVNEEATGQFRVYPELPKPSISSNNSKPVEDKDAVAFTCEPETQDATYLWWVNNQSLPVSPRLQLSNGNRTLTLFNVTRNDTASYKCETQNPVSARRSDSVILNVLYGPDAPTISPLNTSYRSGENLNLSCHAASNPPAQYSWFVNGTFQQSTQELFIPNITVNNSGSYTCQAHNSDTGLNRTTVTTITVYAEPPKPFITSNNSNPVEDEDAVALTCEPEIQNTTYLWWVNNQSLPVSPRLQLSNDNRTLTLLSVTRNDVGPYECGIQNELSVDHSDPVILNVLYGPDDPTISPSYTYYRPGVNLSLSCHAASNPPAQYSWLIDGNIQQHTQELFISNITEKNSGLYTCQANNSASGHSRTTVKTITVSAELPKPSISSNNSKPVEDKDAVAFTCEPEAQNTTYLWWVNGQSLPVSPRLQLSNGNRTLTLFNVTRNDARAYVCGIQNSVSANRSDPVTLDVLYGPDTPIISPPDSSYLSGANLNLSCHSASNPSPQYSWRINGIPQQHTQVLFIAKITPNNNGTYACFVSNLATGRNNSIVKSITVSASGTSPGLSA

[2] = target: T1, human carcinoembryonic antigen (hCEA) …; test: cell binding for one hour at 5x10^3 v.p. per cell, hexon qPCR; hCEA up-regulated by irradiation
[3] = target: T2, purified human carcinoembryonic antigen (hCEA) protein (human, UniProt P06731 35-685, limits assumed); test: dilution ELISA, hCEA coated on plate, VHH detected with HRP/anti-E-tag mAb
T2 construct: Bought protein coated on ELISA plates or used in solution to pre-incubate the virus; also called human CEA protein; recombinant hCEA protein (ab742)
T2 sequence (looked up): T1 sequence (looked up)
Description: Nunc Maxisorb plates (Nunc) were coated overnight at 4° C. with 1 μg/ml human CEA protein (Abeam, Cambridge, Mass.). The plates were blocked in binding buffer containing 5% w/v non-fat milk in Tris-buffered saline (TBS). […] Plates were incubated at 25° C. for one hour and then washed three times with TBS. Bound VHHs were detected with HRP/anti-E-tag mAb (Bethyl Laboratories, Montgomery, Tex.).
The plates for enzyme-linked immunosorbent assay were coated with purified hCEA protein and then purified VHH were added in wells at various concentrations. (FIG. 2A) Bound VHHs were detected with HRP/anti-E-tag mAb. […] The EC₅₀ values are the VHH concentration that produced 50% maximum signal on the ELISAs.

[4] = target: T1, human carcinoembryonic antigen (hCEA) …; test: cell binding for one hour at 1x10^3 vp per cell, Ad hexon gene copy number per 20 ng total DNA by qPCR
[5] = target: T2, purified human carcinoembryonic antigen …; test: ELISA, hCEA coated on plate, virions detected with anti-adenovirus goat Ab
[6] = target: T1, human carcinoembryonic antigen (hCEA) …; test: cell binding for one hour, Ad hexon gene copy number by qPCR, MC38CEA against MC38 cells

B1: AdB2Luc (Ad5 vector displaying anti-hCEA fiber-fibritin-VHH chimera, clone B2) (other)
chain: MKRARPSEDTFNPVYPYDTETGPPTVPFLTPPFVSPNGFQESPPGVLSLRLSEPLVTSNGMLALKMGNGLSLDEAGNLTSQNVYSRLNEIDTKQTTVESDISAIKTSIGYPGNNSIITSVNTNTDNIASINLELNQSGGIKQRLTVIETSIGSDDIPSSIKGQIKDNTTSIESLNGIVGENTSSGLRANVSWLNQIVGTDSSGGQPSPPGSLLNRVSTIETSVSGLNNAVQNLQVEIGNNSAGIKGQVVALNTLVNGTNPNGSTVEERGLTNSIKANETNIASVTQEVNTAKGNISSLQGDVQALQEAGYIPEAPRDGQAYVRKDGEWVFLSTFLSPAGGGGSQVQLVETGGGLVQPGGSLRLSCAASESIFSTYAMGWYRQAPGKQRELVAAITTNDIANYADSVKGRFTISRDNAKNTVYLQMNSLNPEDTAVYYCNAIFPPYNYWGQGTQVTVSSEPKTPKPQ
notes: domain: N-terminal Ad5 fiber tail region;domain: entire fibritin protein with the trimerizing foldon domain; The chimeric fiber stood in the assay on whole purified Ad5 virus particles (other capsid proteins present); also called FF-VHH B2; FF-B2
[1]
  reporter gene (Luc) expression in hCEA-positive MC38CEA cells in comparison with MC38 cells: > 55 fold
[2]
  fold increase of Ad hexon gene copy number in irradiated (6 Gy) against mock-treated A549 cells: 5.1 fold
  fold increase of Ad hexon gene copy number in irradiated (6 Gy) against mock-treated LS174T cells: 3.2 fold
  fold increase of Ad hexon gene copy number in irradiated (6 Gy) against mock-treated PC-3 cells: 2.8 fold

B2: AdC17Luc (Ad5 vector displaying anti-hCEA fiber-fibritin-VHH chimera, clone C17) (other)
chain: MKRARPSEDTFNPVYPYDTETGPPTVPFLTPPFVSPNGFQESPPGVLSLRLSEPLVTSNGMLALKMGNGLSLDEAGNLTSQNVYSRLNEIDTKQTTVESDISAIKTSIGYPGNNSIITSVNTNTDNIASINLELNQSGGIKQRLTVIETSIGSDDIPSSIKGQIKDNTTSIESLNGIVGENTSSGLRANVSWLNQIVGTDSSGGQPSPPGSLLNRVSTIETSVSGLNNAVQNLQVEIGNNSAGIKGQVVALNTLVNGTNPNGSTVEERGLTNSIKANETNIASVTQEVNTAKGNISSLQGDVQALQEAGYIPEAPRDGQAYVRKDGEWVFLSTFLSPAGGGGSEVQLVESGGGFVQAGESLTLSCTSSTLSCTSSTLTFTPYRMAWYRQAPGKQRDLVADISSGDGRTTNYADFAKGRFTISRDNIKNTVFLRMTNLKPEDTAVYYCNTFVSFVGIARSWGQGTQVTVSSEP
[1]
  Luc expression in hCEA+ cells (MC38CEA against MC38): ~4 fold

B3: JJB-A3 (VHH)
VHH: QVQLVETGGGLVQPGGSLRLSCAASGRISDINAMGWYRQAPGKQRELVAAITSVGSNYVDSVKGRFTISKDNAKNTVYLQMYSLNPEDTAVYYCNTQCGTWLVCDGRDQWGKGTLVTVSS
notes: Alpaca anti-hCEA VHH, expressed and purified as a thioredoxin fusion protein; the methods name only JJB-A3; not shown: Thioredoxin fusion partner, E-tag and any linkers
[3]
  EC50: ~0.15 nM

B4: Ad.CXCR4E1.B2 (conditionally replicative Ad5 with fiber-fibritin chimera expressing anti-hCEA sdAb clone B2) (other)
chain: MKRARPSEDTFNPVYPYDTETGPPTVPFLTPPFVSPNGFQESPPGVLSLRLSEPLVTSNGMLALKMGNGLSLDEAGNLTSQNVYSRLNEIDTKQTTVESDISAIKTSIGYPGNNSIITSVNTNTDNIASINLELNQSGGIKQRLTVIETSIGSDDIPSSIKGQIKDNTTSIESLNGIVGENTSSGLRANVSWLNQIVGTDSSGGQPSPPGSLLNRVSTIETSVSGLNNAVQNLQVEIGNNSAGIKGQVVALNTLVNGTNPNGSTVEERGLTNSIKANETNIASVTQEVNTAKGNISSLQGDVQALQEAGYIPEAPRDGQAYVRKDGEWVFLSTFLSPAGGGSQVQLVETGGGLVQPGGSLRLSCAASESIFSTYAMGWYRQAPGKQRELVAAITTNDIANYADSVKGRFTISRDNAKNTVYLQMNSLNPEDTAVYYCNAIFPPYNYWGQGTQVTVSSEPKTPKPQ
notes: domain: N-terminal Ad5 fiber tail region;domain: trimerizing domain of the fibritin protein; Chimeric fiber on whole purified virus particles; also called FFB2; fiber-fibritin-B2
[4]
  fold binding to hCEA(+) MC38CEA cells against hCEA(-) MC38 cells: ~25 fold

B5: JJB-B2 (VHH)
VHH: QVQLVETGGGLVQPGGSLRLSCAASESIFSTYAMGWYRQAPGKQRELVAAITTNDIANYADSVKGRFTISRDNAKNTVYLQMNSLNPEDTAVYYCNAIFPPYNYWGQGTQVTVSS
notes: Alpaca anti-hCEA VHH, expressed and purified as a thioredoxin fusion protein; also called clone B2; B2 sdAb; not shown: Thioredoxin fusion partner, E-tag and any linkers
[3]
  EC50: ~0.2 nM

B6: JJB-D1 (VHH)
VHH: QVQLVESGGLVQAGGSLRPSCAASGSIFLQNAMGWYRQVPGKQRELVAAITSVDSTNYADSVKGRFTISRDNAKNTVYLQMNSLKPEDTAVYYCNAPWNSDYHWGKGTLVTVSS
notes: Alpaca anti-hCEA VHH, expressed and purified as a thioredoxin fusion protein; not shown: Thioredoxin fusion partner, E-tag and any linkers
[3]
  EC50: ~1 nM

B7: JJB-B5 (VHH)
VHH: QVQLVETGGGLVQPGGSLRPSCTASGSIFSIYAMGWYRQASGKQRELVALITRDEVFNYADSVKGRFTISRDNAKDTVYLQMNSLKPEDTAVYYCWVETVNDHYNSGVEDYWGQGTQVTVSS
notes: as for B6
[3]
  EC50: ~50 nM

B8: AdVHH122Luc (Ad5 vector displaying anti-EGFR fiber-fibritin-VHH chimera, clone VHH122) (other)
chain: MKRARPSEDTFNPVYPYDTETGPPTVPFLTPPFVSPNGFQESPPGVLSLRLSEPLVTSNGMLALKMGNGLSLDEAGNLTSQNVYSRLNEIDTKQTTVESDISAIKTSIGYPGNNSIITSVNTNTDNIASINLELNQSGGIKQRLTVIETSIGSDDIPSSIKGQIKDNTTSIESLNGIVGENTSSGLRANVSWLNQIVGTDSSGGQPSPPGSLLNRVSTIETSVSGLNNAVQNLQVEIGNNSAGIKGQVVALNTLVNGTNPNGSTVEERGLTNSIKANETNIASVTQEVNTAKGNISSLQGDVQALQEAGYIPEAPRDGQAYVRKDGEWVFLSTFLSPAGGGGSEVQLQESGGGLVQAGDSLRLSCLVSGRSFNSYTMGWFRQAPGKEREFVAAILWSGPTTYYADSVKGRFTISRDNAKNTVYLQMNSLKPEDTAVYYCAAALGVLVLAPGNVYSYWGQGTQVTVSS
notes: domain: N-terminal Ad5 fiber tail region;domain: entire fibritin protein with the trimerizing foldon domain; Isogenic control vector; chimeric fiber on whole purified Ad5 virus particles; also called FF-VHH122
[5]
  binding result: no binding

B9: Ad5Luc (Ad5 vector with wild-type Ad5 fiber) (other)
chain: MKRARPSEDTFNPVYPYDTETGPPTVPFLTPPFVSPNGFQESPPGVLSLRLSEPLVTSNGMLALKMGNGLSLDEAGNLTSQNVTTVSPPLKKTKSNINLEISAPLTVTSEALTVAAAAPLMVAGNTLTMQSQAPLTVHDSKLSIATQGPLTVSEGKLALQTSGPLTTTDSSTLTITASPPLTTATGSLGIDLKEPIYTQNGKLGLKYGAPLHVTDDLNTLTVATGPGVTINNTSLQTKVTGALGFDSQGNMQLNVAGGLRIDSQNRRLILDVSYPFDAQNQLNLRLGQGPLFINSAHNLDINYNKGLYLFTASNNSKKLEVNLSTAKGLMFDATAIAINAGDGLEFGSPNAPNTNPLKTKIGHGLEFDSNKAMVPKLGTGLSFDSTGAITVGNKNNDKLTLWTTPAPSPNCRLNAEKDAKLTLVLTKCGSQILATVSVLAVKGSLAPISGTVQSAHLIIRFDENGVLLNNSFLDPEYWNFRNGDLTEGTAYTNAVGFMPNLSAYPKSHGKTAKSNIVSQVYLNGDKTKPVTLTITLNGTQETGDTTPSAYSMSFSWDWSGHNYINEIFATSSYTFSYIAQE
notes: Wild-type fiber on whole purified Ad5 virus particles; control vector; also called wild-type Ad5Luc; fiber unmodified control Ad5Luc vector
[5]
  binding result: no binding

B10: Ad.CXCR4E1 (conditionally replicative Ad5 with wild-type Ad5 fiber) (other)
chain: B9 chain
notes: Wild-type fiber on whole purified virus particles; control vector; also called control CRAd
[6]
  binding result: no binding (tested: 1x10^3 vp per cell)
